Data on 2 molecules can be found in patent US20170334979A1 (published 2017).

B1: 7A (protein)
chain: EVQLVESGGGLVQPGNSLRLSCAASGFTFSKFGMSWVRQAPGKGLEWVSSISGSGADTLYADSLKGRFTISRDNAKTTLYLQMNSLRPEDTAVYYCTIGGSLSKSSQGTLVTVSS
B2: cynomolgus monkey serum albumin (other)
chain: DTHKSEVAHRFKDLGEEHFKGLVLVAFSQYLQQCPFEEHVKLVNEVTEFAKTCVADESAENCDKSLHTLFGDKLCTVATLRETYGEMADCCAKQEPERNECFLQHKDDNPNLPPLVRPEVDVMCTAFHDNEATFLKKYLYEVARRHPYFYAPELLFFAARYKAAFAECCQAADKAACLLPKLDELRDEGKASSAKQRLKCASLQKFGDRAFKAWAVARLSQKFPKAEFAEVSKLVTDLTKVHTECCHGDLLECADDRADLAKYMCENQDSISSKLKECCDKPLLEKSHCLAEVENDEMPADLPSLAADYVESKDVCKNYAEAKDVFLGMFLYEYARRHPDYSVMLLLRLAKAYEATLEKCCAAADPHECYAKVFDEFQPLVEEPQNLVKQNCELFEQLGEYKFQNALLVRYTKKVPQVSTPTLVEVSRNLGKVGAKCCKLPEAKRMPCAEDYLSVVLNRLCVLHEKTPVSEKVTKCCTESLVNRRPCFSALELDEAYVPKAFNAETFTFHADMCTLSEKEKQVKKQTALVELVKHKPKATKEQLKGVMDNFAAFVEKCCKADDKEACFAEEGPKFVAASQAALA

Some targets named below: mouse serum albumin (mouse, UniProt P07724 25-608); human serum albumin (human, UniProt P02768 25-609); 10GE.
Holding throughout (assay): purified sdAb binding
For experiment [1], the target named is B2.

mouse serum albumin, sequence (P07724 25-608): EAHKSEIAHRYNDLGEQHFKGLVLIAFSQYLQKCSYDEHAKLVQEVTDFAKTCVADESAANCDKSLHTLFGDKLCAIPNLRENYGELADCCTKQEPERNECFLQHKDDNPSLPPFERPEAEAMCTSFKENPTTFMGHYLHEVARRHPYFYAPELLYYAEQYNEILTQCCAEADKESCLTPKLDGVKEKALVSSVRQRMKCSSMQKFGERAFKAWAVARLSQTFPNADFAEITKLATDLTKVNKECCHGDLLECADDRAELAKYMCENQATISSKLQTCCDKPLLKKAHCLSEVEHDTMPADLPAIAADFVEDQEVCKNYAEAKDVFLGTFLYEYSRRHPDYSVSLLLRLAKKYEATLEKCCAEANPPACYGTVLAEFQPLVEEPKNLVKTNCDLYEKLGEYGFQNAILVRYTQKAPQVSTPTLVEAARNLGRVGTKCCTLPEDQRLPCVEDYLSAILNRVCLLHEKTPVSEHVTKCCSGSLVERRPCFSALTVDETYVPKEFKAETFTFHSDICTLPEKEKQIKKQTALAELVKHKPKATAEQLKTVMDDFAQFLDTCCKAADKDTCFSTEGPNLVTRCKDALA

B1: the dissociation constant (Kd) was 12.3 nM in the experiment with mouse serum albumin, 1.9 nM in the experiment with human serum albumin and 1.7 nM in experiment [1].
With B2, in the experiment with 10GE, the dissociation constant Kd was 1.6 nM.

What is called Kd is the concentration at which binding is half-saturated.
